One test concerns the target T1, ASK1 (Homo sapiens, UniProt Q99683).
T1 construct: wild type ASK1 (ASK1-WT, aa 1-1375); expressed in transfected cells; host or cells: BAEC
T1 sequence (Q99683 1-1374): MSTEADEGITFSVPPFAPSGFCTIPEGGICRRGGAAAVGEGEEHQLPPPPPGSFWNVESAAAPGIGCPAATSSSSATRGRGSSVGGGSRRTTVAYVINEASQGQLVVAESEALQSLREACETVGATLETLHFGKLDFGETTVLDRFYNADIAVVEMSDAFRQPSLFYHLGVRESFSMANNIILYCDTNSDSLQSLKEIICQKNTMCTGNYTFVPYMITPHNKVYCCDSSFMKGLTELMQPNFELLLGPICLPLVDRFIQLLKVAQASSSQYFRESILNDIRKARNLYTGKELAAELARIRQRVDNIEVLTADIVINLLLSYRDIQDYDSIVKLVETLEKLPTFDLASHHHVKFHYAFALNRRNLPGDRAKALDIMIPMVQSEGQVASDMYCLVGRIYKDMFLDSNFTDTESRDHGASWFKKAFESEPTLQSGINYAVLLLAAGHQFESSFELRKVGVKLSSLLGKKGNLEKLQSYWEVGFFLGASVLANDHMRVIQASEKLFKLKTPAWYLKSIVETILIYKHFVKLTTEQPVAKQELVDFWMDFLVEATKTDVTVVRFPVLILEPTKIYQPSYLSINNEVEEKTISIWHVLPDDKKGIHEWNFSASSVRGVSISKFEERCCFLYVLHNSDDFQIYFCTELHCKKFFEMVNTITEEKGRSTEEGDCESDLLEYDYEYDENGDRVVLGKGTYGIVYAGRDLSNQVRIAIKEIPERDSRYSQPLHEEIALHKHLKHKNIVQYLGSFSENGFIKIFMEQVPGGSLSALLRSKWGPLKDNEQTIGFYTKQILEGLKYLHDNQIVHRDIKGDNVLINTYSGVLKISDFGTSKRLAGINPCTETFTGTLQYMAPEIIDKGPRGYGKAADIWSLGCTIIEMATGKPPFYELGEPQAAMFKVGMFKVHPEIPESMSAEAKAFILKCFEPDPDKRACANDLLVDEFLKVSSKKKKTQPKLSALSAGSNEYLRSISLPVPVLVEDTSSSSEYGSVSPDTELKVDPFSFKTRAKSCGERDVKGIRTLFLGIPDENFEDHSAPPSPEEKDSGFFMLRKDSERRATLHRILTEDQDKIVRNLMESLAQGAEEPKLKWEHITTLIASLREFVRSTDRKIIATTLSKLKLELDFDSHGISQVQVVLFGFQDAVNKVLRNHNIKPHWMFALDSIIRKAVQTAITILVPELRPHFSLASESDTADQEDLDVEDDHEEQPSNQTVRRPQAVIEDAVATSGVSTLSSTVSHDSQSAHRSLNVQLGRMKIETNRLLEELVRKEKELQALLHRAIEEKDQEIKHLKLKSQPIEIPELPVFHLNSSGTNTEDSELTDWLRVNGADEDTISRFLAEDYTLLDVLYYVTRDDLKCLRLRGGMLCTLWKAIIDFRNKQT
The test can be described thus: GST-Trx pull-down assay. It counts as binding. As to conditions: for ASK1 bound to GST-Trx: in the presence of 1 mM DTT; for association of GST-Trx with ASK1: in the presence of 1 mM H2O2. As for the experimental part:
GST-Trx pull-down assay: GST fusion protein preparation and GST pull-down assay were performed as described previously. […] Briefly, GST-Trx fusion proteins expressed in Escherichia coli XL-1 blue were affinity purified on glutathione-Sepharose beads (Pharmacia). 400 μg of cell lysates expressing HA-tagged ASK1 were incubated with 10 μg of GST-Trx bound to glutathione-Sepharose in the lysis buffer containing either 1 mM DTT or 1 mM H2O2. The beads were washed 4 times with the lysis buffer before the addition of boiling Laemmli sample buffer. Bound ASK1 proteins were resolved on SDS-PAGE and detected by Western blot with anti-HA.
Hydrogen peroxide dissociates wild type Trx but not Trx-C32S or Trx-C35S from ASK1 in vitro. Association of ASK1 with various Trx proteins - Trx-WT, Trx-CS, Trx-C32S or Trx-C35S in the presence of 1 mM DTT or H202 in an in vitro GST pull-down assay. Bacteria-expressed GST-Trx proteins were purified and protein concentrations were determined by SDS-PAGE (FIG. 2A). […] ASK1 bound to GST-Trx was determined by Western blot with anti-HA.

Another test deals with JNK. Description: ASK1-induced JNK activation in BAEC, in vitro kinase assay with GST-c-Jun. It counts as cell-based, Bovine. As to conditions: co-expression with ASK1 1:1, 24 h post-transfection. The procedure:
J Immunol. 159:3508-18 (1997)) using GST-MKK4 and GST-c-Jun (1-80) fusion protein as a substrate, respectively. Briefly, total 400 μg cell lysates were immunoprecipitated with 5 μg of antibody against ASK1 or JNK1 (Santa Cruz). The immunoprecipitates were mixed with 10 μg GST-MKK4 or GST-c-Jun (1-80) suspended in the kinase buffer (20 mM Hepes, pH 7.6, 20 mM MgCl2, 25 mM β-glycerophosphate, 100 μM sodium orthovanadate, 2 mM DTT, 20 μM ATP) containing 1 μl (10 μCi) of [γ-32P] ATP. The kinase assay was performed at 25° C. for 30 min. The reaction was terminated by the addition of Laemmli sample buffer and the phosphorylated GST-MKK4 or GST-c-Jun (1-80) was visualized by autoradiography.
Trx-C32S and Trx-C35S (but not Trx-WT) inhibits ASK1-mediated EC apoptosis induced by TNF. To determine the biological consequence of Trx-induced ASK1 ubiquitination/degradation, the effects of Trx on ASK1-induced apoptosis were examined. ASK1-induced activation of JNK and caspase 3 has been implicated in cell d e a t h (Hatai T et al. Execution of apoptosis signal-regulating kinase 1 (ASK1) induced apoptosis by the mitochondria-dependent caspase activation. J Biol Chem.275:26576-81 (2000); Tournier C et al. Requirement of JNK for stress-induced activation of the cytochrome c- mediated death pathway. Science. 288:870-4 (2000)). First, the effects of Trx on JNK activation induced by ASK1 were examined. BAEC were co-transfected with ASK1 and Trx expression constructs as indicated, and JNK activity was measured by an in vitro kinase assay using GST-c-Jun as a substrate. […] Co-expression of Trx-WT, Trx-C32S and Trx-C35S (but not Trx-CS) inhibited ASK1-induced JNK activity (FIG. 6A top panel). Western blot with anti-Flag indicated equal amounts of Trx proteins were expressed (FIG. 6A bottom panel). Similar results were obtained in human EC (HUVEC).

We go through three molecules from patent US20060148057A1, “Thioredoxin mutants and uses thereof” (priority 2002, published 2006).

B1: thioredoxin (protein)
chain: MVKQIESKTAFQEALDAAGDKLVVVDFSATWCGPCKMIKPFFHSLSEKYSNVIFLEVDVDDCQDVASECEVKCMPTFQFFKKGQKVGEFSGANKEKLEATINELV
modifications: Flag tag or GST fusion
notes: Flag-tagged or GST fusion
In the case of B1, in the test with ASK1, the “ASK1 bound to GST-Trx” value is given as “bound” and the “association of GST-Trx with ASK1” value was “disrupted the association”. Also, the “ASK1-induced JNK activity” value in the test with JNK is given as “inhibited”.

B2: Trx-C32S: C32S single mutant of Trx at the catalytic site, SEQ ID NO:2 (protein)
chain: MVKQIESKTAFQEALDAAGDKLVVVDFSATWSGPCKMIKPFFHSLSEKYSNVIFLEVDVDDCQDVASECEVKCMPTFQFFKKGQKVGEFSGANKEKLEATINELV
Consider B2, for which, in the test with ASK1, the “ASK1 bound to GST-Trx” value is recorded as “bound” and the “association of GST-Trx with ASK1” value was “retained their associations with ASK1”. Moreover, the “ASK1-induced JNK activity” value in the test on JNK is listed as “inhibited”.

B3: Trx-C35S: C35S single mutant of Trx at the catalytic site, SEQ ID NO:3 (protein)
chain: MVKQIESKTAFQEALDAAGDKLVVVDFSATWCGPSKMIKPFFHSLSEKYSNVIFLEVDVDDCQDVASECEVKCMPTFQFFKKGQKVGEFSGANKEKLEATINELV
As for B3, in the test with ASK1, the “ASK1 bound to GST-Trx” value was “bound” and the “association of GST-Trx with ASK1” value was “retained their associations with ASK1”. In addition, the “ASK1-induced JNK activity” value with JNK is recorded as “inhibited”.
